Experimental findings from PMC5770554, “Molecular Insights into Function and Competitive Inhibition of Pseudomonas aeruginosa Multiple Virulence Factor Regulator” (mBio, 2018) are described below.

This data set concerns the molecule itself. Kind of data set: crystal structure; MvfR LBD with the inhibitor M64 bound; space group C 2 2 2_(1), 2.65 Å, two monomers in the asymmetric unit; tetrameric arrangement in the crystal.

B1: MvfR ligand binding domain (LBD), residues 94 to 295 (domain or fragment)
chain: TNLRVLLDTAIPPSFCDTVSSVLLDDFNMVSLIRTSPADSLATIKQDNAEIDIAITIDEELKISRFNQCVLGYTKAFVVAHPQHPLCNASLHSIASLANYRQISLGSRSGQHSNLLRPVSDKVLFVENFDDMLRLVEAGVGWGIAPHYFVEERLRNGTLAVLSELYEPGGIDTKVYCYYNTALESERSFLRFLESARQRLREL
notes: Thr that precedes residue 94 in the construct (His-THB-SUMO-ULP-Thr) and is left after cleavage with SEN protease; the model numbers it Thr93; Q9I4X0 is the entry of strain PAO1; Cloned into pET28a; the model comprises Thr93 to Leu295; also called MvfR LBD; PqsR LBD; source: E. coli BL21(DE3), purified (Ni-NTA, negative Ni-NTA after cleavage of the tag with SEN protease, gel filtration); not …
Regarding B1, the “stoichiometry N” value worked out at 4.
